From the supplement of paper PMC9112550, “Optimization of the antimicrobial peptide Bac7 by deep mutational scanning” (BMC Biology, 2022)

tested on: Escherichia coli TOP10; experiment: shrunken log2 fold change of peptide-encoding DNA abundance (4.5 h post-induction vs induction); higher = less antimicrobial activity (less host growth inhibition); details: time post-induction: 4.5 h; library: site-saturation at positions 5, 18, 19, 20
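Note: peptides expressed intracellularly from a pBAD plasmid library in pooled LB shake-flask culture, induced with 0.3% L-arabinose, DNA abundance read by NGS, three biological replicates, DESeq2 with apeglm shrinkage.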

Sequence | shrunken log2 fold change
RRIRCRPPRLPRPRPRPNCAPRP | 0.00777
RRIRPRPPRLPRPRPRPSAGPRP | 0.243
RRIRTRPPRLPRPRPRPMWGPRP | -0.00569
RRIRKRPPRLPRPRPRPHSAPRP | 0.246
RRIRMRPPRLPRPRPRPSFSPRP | -0.176
RRIRGRPPRLPRPRPRPINVPRP | -0.248
RRIRLRPPRLPRPRPRPRLQPRP | 0.15
RRIRMRPPRLPRPRPRPCYIPRP | -0.133
RRIRVRPPRLPRPRPRPGAEPRP | 0.271
RRIRMRPPRLPRPRPRPLFSPRP | 0.0255
RRIRRRPPRLPRPRPRPHMGPRP | -0.15
RRIRGRPPRLPRPRPRPECPPRP | 0.475
RRIRFRPPRLPRPRPRPMDAPRP | 0.111
RRIRPRPPRLPRPRPRPREHPRP | 0.121
RRIRVRPPRLPRPRPRPSHVPRP | -0.0313
RRIRKRPPRLPRPRPRPVWQPRP | 0.184
RRIRLRPPRLPRPRPRPSFDPRP | -0.373
RRIRMRPPRLPRPRPRPSTWPRP | 0.081
RRIRHRPPRLPRPRPRPWRTPRP | -0.229
RRIRERPPRLPRPRPRPTSIPRP | -0.19
RRIRQRPPRLPRPRPRPMKPPRP | -0.0268
RRIRFRPPRLPRPRPRPNMEPRP | -0.129
RRIRMRPPRLPRPRPRPDNRPRP | 0.00102
RRIRTRPPRLPRPRPRPIGFPRP | -0.0989
RRIRRRPPRLPRPRPRPQQMPRP | 0.12

Sequence | shrunken log2 fold change
RRIRGRPPRLPRPRPRPWGAPRP | 0.444
RRIRTRPPRLPRPRPRPATYPRP | -0.169
RRIRYRPPRLPRPRPRPKDDPRP | -0.153
RRIRARPPRLPRPRPRPKPEPRP | 0.223
RRIRHRPPRLPRPRPRPKGNPRP | -0.124
RRIRERPPRLPRPRPRPAFRPRP | -0.0607
RRIRVRPPRLPRPRPRPWSPPRP | -0.00502
RRIRHRPPRLPRPRPRPDLHPRP | -0.0566
RRIRSRPPRLPRPRPRPRDWPRP | 0.4
RRIRERPPRLPRPRPRPRGGPRP | 0.376
RRIRDRPPRLPRPRPRPMRRPRP | 0.363
RRIRWRPPRLPRPRPRPYTGPRP | -0.135
RRIRWRPPRLPRPRPRPINPPRP | -0.247
RRIRMRPPRLPRPRPRPRMMPRP | 0.476
RRIRCRPPRLPRPRPRPKPHPRP | 0.398
RRIRWRPPRLPRPRPRPQKSPRP | 0.0128
RRIRNRPPRLPRPRPRPAAGPRP | 0.698
RRIRERPPRLPRPRPRPPEMPRP | 0.0477
RRIRVRPPRLPRPRPRPPSDPRP | 0.197
RRIRCRPPRLPRPRPRPMHNPRP | -0.293
RRIRKRPPRLPRPRPRPCPGPRP | -0.251
RRIRIRPPRLPRPRPRPDIIPRP | -0.0935
RRIRIRPPRLPRPRPRPYMRPRP | 0.0163
RRIRCRPPRLPRPRPRPGFYPRP | -0.449
RRIRMRPPRLPRPRPRPKEMPRP | 0.31

Sequence | shrunken log2 fold change
RRIRTRPPRLPRPRPRPEGNPRP | -0.311
RRIRYRPPRLPRPRPRPRFRPRP | -0.213
RRIRSRPPRLPRPRPRPPPTPRP | 0.914
RRIRSRPPRLPRPRPRPEMDPRP | -0.0847
RRIRQRPPRLPRPRPRPWPIPRP | -0.152
RRIRQRPPRLPRPRPRPCPLPRP | -0.0641
RRIRNRPPRLPRPRPRPKIYPRP | -0.0429
RRIRDRPPRLPRPRPRPGHRPRP | -0.0741
RRIRFRPPRLPRPRPRPEVRPRP | 0.14
RRIRVRPPRLPRPRPRPWCAPRP | -0.0313
RRIRQRPPRLPRPRPRPAMMPRP | 0.00621
RRIRPRPPRLPRPRPRPYWPPRP | -0.143
RRIRRRPPRLPRPRPRPWLMPRP | -0.185
RRIRPRPPRLPRPRPRPIQFPRP | -0.145
RRIRLRPPRLPRPRPRPNEMPRP | 0.0287
RRIRFRPPRLPRPRPRPWRVPRP | 0.0748
RRIRNRPPRLPRPRPRPYNAPRP | -1.54
RRIRLRPPRLPRPRPRPYREPRP | -0.134
RRIRIRPPRLPRPRPRPADPPRP | -0.071
RRIRIRPPRLPRPRPRPYHTPRP | -1.25
RRIRMRPPRLPRPRPRPPAPPRP | 2.01
RRIRARPPRLPRPRPRPPQPPRP | 1.03
RRIRWRPPRLPRPRPRPIWEPRP | 0.00194
RRIRSRPPRLPRPRPRPENMPRP | -0.459
RRIRIRPPRLPRPRPRPYMKPRP | -0.495

Sequence | shrunken log2 fold change
RRIRQRPPRLPRPRPRPRRKPRP | 0.192
RRIRFRPPRLPRPRPRPERPPRP | 0.415
RRIRCRPPRLPRPRPRPSHCPRP | -0.393
RRIRNRPPRLPRPRPRPSIKPRP | -0.0594
RRIRERPPRLPRPRPRPCIKPRP | -0.363
RRIRFRPPRLPRPRPRPQGPPRP | 0.0563
RRIRGRPPRLPRPRPRPRQDPRP | 0.452
RRIRMRPPRLPRPRPRPQICPRP | 0.058
RRIRQRPPRLPRPRPRPIMNPRP | -1.23
RRIRERPPRLPRPRPRPYVDPRP | -0.0122
RRIRQRPPRLPRPRPRPSFHPRP | -0.351
RRIRYRPPRLPRPRPRPGTDPRP | -0.0254
RRIRARPPRLPRPRPRPDSIPRP | -0.0582
RRIRCRPPRLPRPRPRPFAVPRP | -0.169
RRIRCRPPRLPRPRPRPLWHPRP | -0.091
RRIRWRPPRLPRPRPRPIKWPRP | -0.18
RRIRTRPPRLPRPRPRPEKHPRP | 0.0385
RRIRARPPRLPRPRPRPTDDPRP | 0.332
RRIRWRPPRLPRPRPRPKYLPRP | -0.1
RRIRERPPRLPRPRPRPMDSPRP | -0.0933
RRIRRRPPRLPRPRPRPCGHPRP | -0.0448
RRIRDRPPRLPRPRPRPAGMPRP | 0.411
RRIRNRPPRLPRPRPRPDCNPRP | -0.0899
RRIRKRPPRLPRPRPRPRWDPRP | 0.118
RRIRERPPRLPRPRPRPAWDPRP | 0.0257

Sequence | shrunken log2 fold change
RRIRKRPPRLPRPRPRPHPRPRP | 1.27
RRIRIRPPRLPRPRPRPFYMPRP | -0.235
RRIRHRPPRLPRPRPRPMYNPRP | -0.833
RRIRLRPPRLPRPRPRPWSSPRP | -0.469
RRIRLRPPRLPRPRPRPEAAPRP | 0.732
RRIRARPPRLPRPRPRPYGPPRP | -0.264
RRIRRRPPRLPRPRPRPDEGPRP | -0.00319
RRIRKRPPRLPRPRPRPLLDPRP | 0.246
RRIRFRPPRLPRPRPRPSSTPRP | -0.325
RRIRSRPPRLPRPRPRPWNTPRP | -0.237
RRIRSRPPRLPRPRPRPYGDPRP | -0.115
RRIRFRPPRLPRPRPRPRCRPRP | 0.109
RRIRFRPPRLPRPRPRPGCMPRP | -0.178
RRIRLRPPRLPRPRPRPNEPPRP | -0.213
RRIRARPPRLPRPRPRPMRWPRP | 0.618
RRIRARPPRLPRPRPRPRNNPRP | -0.101
RRIRTRPPRLPRPRPRPQITPRP | -0.474
RRIRIRPPRLPRPRPRPADTPRP | -0.347
RRIRRRPPRLPRPRPRPLIAPRP | 0.294
RRIRMRPPRLPRPRPRPDWTPRP | 0.0113
RRIRIRPPRLPRPRPRPARDPRP | -0.169
RRIRQRPPRLPRPRPRPTAYPRP | 0.14
RRIRTRPPRLPRPRPRPNQQPRP | 0.00192
RRIRERPPRLPRPRPRPTVYPRP | -0.194
RRIRLRPPRLPRPRPRPRLNPRP | -0.0854
